In publication PMC10311653:

Target: wildtype (WT) human interleukin-1β (human) (UniProt P01584)
Test: ELISA; antigen (100 ng) coated on the plate; scFv-mFc added in 3% skim milk in DPBST, 2 h at 37 °C; EC50

B1: E64Kcr-H11-mFc (Fc fusion)
VH: EVQLQQSGAELVKPGASVRLSCTASGFNIKDYYMHWVKQRPEQGLEWIGWIDPENGDTEYAPKFQGKATMTADTSSNTAYLQLSSLTSEDTAVYYCNGYDDYWGQGTTLTVSS
VL: DIVMTQSQKFMSTSVGDRVSVTCKASQNVGTDVAWYQQKPGQSPKALIYSASYHYSGVPDRFTGTGSGTDFTLTISNVRSEDLAEYFCQQYNSYPYTFGGGTKLEIK
EC50: 17.4 nM
